For one assay, the system named is RXFP4. The conditions noted are these: R23^BA ref 34; R23^BE ref 35; cited from earlier work. An excerpt: Despite these advances, difficulties in obtaining sufficient quantities of native INSL5 hampered our efforts in further exploring the biology of the peptide and its cognate receptor. […] In addition to peptidic analogs, small molecule modulators have been reported in recent years. […] The N-terminal residues (R5^B to L9^B) adopted a loop that is clasped by a short N-terminal α-helix of the A chain through one disulfide bond (C8^A‒C7^B). W24^B contributed massive polar and nonpolar interactions to stabilize the peptide binding via both side chain indole and the carboxylic acid group. The former made a hydrogen bond with T121^3.32 (superscripts denote Ballesteros–Weinstein numbering[32]), as well as cation- ...

The target in assay [1] is T1, human RXFP4 stably expressed on CHO-K1 cells (hRXFP4-CHO) (human, UniProt Q8TDU9 1-374).
T1 construct: relaxin family peptide receptor 4 (RXFP4), human, on stably transfected CHO-K1 cells; source: CHO-K1 cells, stably transfected, on cells
In words: competitive binding of a europium-labelled ligand on cells (time-resolved fluorescence); CHO-K1 cells stably transfected with RXFP4 on poly-L-lysine 96-well plates; 5 nM Eu-R3/I5 with increasing amounts of ligand; one-site binding curve. The conditions noted are these: one partner purified.

Assay [2] concerns the target human RXFP4 H299A mutant (human) (UniProt Q8TDU9).
Assay [3] concerns the target T1, human RXFP4 stably expressed on CHO-K1 …. In words: cell-based or functional assay.

Ends that are not written are not given here.

T1 sequence (Q8TDU9 whole entry): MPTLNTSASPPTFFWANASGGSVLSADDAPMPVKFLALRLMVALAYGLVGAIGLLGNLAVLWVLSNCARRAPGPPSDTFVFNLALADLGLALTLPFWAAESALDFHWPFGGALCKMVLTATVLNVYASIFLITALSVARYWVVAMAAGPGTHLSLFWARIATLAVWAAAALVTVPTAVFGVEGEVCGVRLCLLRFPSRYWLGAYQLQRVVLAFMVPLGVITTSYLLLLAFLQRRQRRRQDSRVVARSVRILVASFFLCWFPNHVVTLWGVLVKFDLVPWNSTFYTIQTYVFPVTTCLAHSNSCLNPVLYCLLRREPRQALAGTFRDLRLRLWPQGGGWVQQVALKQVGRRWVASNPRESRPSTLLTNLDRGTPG
Sequence of human RXFP4 H299A mutant (human) (Q8TDU9 whole entry H299A): as the sequence (Q8TDU9 whole entry) above, with H299A counted along it

With “R23^BA: INSL5 with R23^B replaced by alanine (Insulin-like peptide INSL5 B … KESVRLCGLEYIRTVIYICASSAW; Insulin-like peptide INSL5 A … QDLQTLCCTDGCSMTDLSALC; disulfide (positions not given here); ends not checked; also: three disulfide bonds, places not given here; UniProt Q9Y5Q6 23-46; Q9Y5Q6 115-135, looked up, variant R23A)”, in the assay with RXFP4, the “potency of R23^B mutant vs INSL5” value is “reduced potencies”.

B1: recombinant two-chain human insulin-like peptide 5 (INSL5) (ligand)
chain 1: QDLQTLCCTDGCSMTDLSALC
chain 2: KESVRLCGLEYIRTVIYICASSRW
Turning to B1, in assay [1], the pKi (commonly −log10 of the Ki, conventionally taken in molar units) came to 8.19. In assay [2], this molecule had an INSL5-induced cAMP response in HEK293T cells transfected with the mutant receptor: reduction of Emax against wild type of 70%. Also, the “inhibition of forskolin-induced cAMP responses in CHO-K1 cells stably transfected with RXFP4 (pEC50)” value in assay [3] was determined as 8.8.

These data come from publication PMC9886975, “Ligand recognition mechanism of the human relaxin family peptide receptor 4 (RXFP4)” (Nature Communications, 2023).
